In US20110201024A1:

Biological target: hRLuc-connector-DhaA.H272F-Flag fusion protein with covalently bound biotin-C18H32O4- (after treatment with biotin-C18H32O4-Cl) (Renilla; Rhodococcus rhodochrous) (UniProt P0A3G2)
Test: capture on streptavidin-coated 96 well plate after treatment with biotin-C18H32O4-Cl, read as luciferase activity

## streptavidin (SA), coated on 96 well plates (Pierce) or on MagnaBind beads (Pierce #21344) (from UniProt P22629 37-163)
  efficiency of capturing (percent of Renilla luciferase activity added to the plate): > 50%
